Experimental data as given in publication PMC8979966.

Biological target: TCR 868 (single-chain Vbeta-linker-Valpha)
Assay: not given
Conditions: higher = more enriched with TCR 868 than with the control TCR A6; not monotonic in affinity (misses both ways); scale: ratio: mean frequency with TCR 868 / mean frequency with control TCR A6, each normalised to the 3* stop peptide; numbering: sequential-on-construct, sequence starts at 1

Substance | screen value
SL9 peptide (HIV-1 Gag, […]) presented by HLA-A*02:01 3T (SLTNTVATL; codon ACG) | 1.07
SL9 peptide (HIV-1 Gag, […]) presented by HLA-A*02:01 3T (SLTNTVATL; codon ACT) | 1.11

Biological target: TCR 868 (single-chain Vbeta-linker-Valpha)
Assay: YAMTAD: yeast mating between pMHC-displaying and TCR-displaying yeast, diploid selection, deep sequencing; 3 biological x 4 technical repeats
Conditions: S. cerevisiae mating; TCR 868 group vs control TCR A6 group; higher = more enriched with TCR 868 than with the control TCR A6; not monotonic in affinity (misses both ways); not an affinity; keep out of graded; partner unresolved; scale: ratio: mean frequency with TCR 868 / mean frequency with control TCR A6, each normalised to the 3* stop peptide; numbering: sequential-on-construct, sequence starts at 1

Substance | screen value
SL9 peptide (HIV-1 Gag, […]) presented by HLA-A*02:01 3A (SLANTVATL; codon GCT) | 1.12
SL9 peptide (HIV-1 Gag, […]) presented by HLA-A*02:01 3N (SLNNTVATL; codon AAT) | 0.989
SL9 peptide (HIV-1 Gag, […]) presented by HLA-A*02:01 3W (SLWNTVATL; codon TGG) | 1.2
SL9 peptide (HIV-1 Gag, […]) presented by HLA-A*02:01 3L (SLLNTVATL; codon CTG) | 1.89
SL9 peptide (HIV-1 Gag, […]) presented by HLA-A*02:01 3M (SLMNTVATL; codon ATG) | 1.16
SL9 peptide (HIV-1 Gag, […]) presented by HLA-A*02:01 3G (SLGNTVATL; codon GGG) | 0.959
SL9 peptide (HIV-1 Gag, […]) presented by HLA-A*02:01 3L (SLLNTVATL; codon TTG) | 1.84
SL9 peptide (HIV-1 Gag, […]) presented by HLA-A*02:01 3V (SLVNTVATL; codon GTT) | 1.16
SL9 peptide (HIV-1 Gag, […]) presented by HLA-A*02:01 3R (SLRNTVATL; codon CGT) | 1.04
SL9 peptide (HIV-1 Gag, […]) presented by HLA-A*02:01 3D (SLDNTVATL; codon GAT) | 1.15
SL9 peptide (HIV-1 Gag, […]) presented by HLA-A*02:01 3L (SLLNTVATL; codon CTT) | 2.02
SL9 peptide (HIV-1 Gag, […]) presented by HLA-A*02:01 3E (SLENTVATL; codon GAG) | 0.967
SL9 peptide (HIV-1 Gag, […]) presented by HLA-A*02:01 3V (SLVNTVATL; codon GTG) | 1.11
SL9 peptide (HIV-1 Gag, […]) presented by HLA-A*02:01 3Q (SLQNTVATL; codon CAG) | 1.16
SL9 peptide (HIV-1 Gag, […]) presented by HLA-A*02:01 3S (SLSNTVATL; codon AGT) | 1.08
SL9 peptide (HIV-1 Gag, […]) presented by HLA-A*02:01 3C (SLCNTVATL; codon TGT) | 1.1
SL9 peptide (HIV-1 Gag, […]) presented by HLA-A*02:01 3P (SLPNTVATL; codon CCG) | 1.03
SL9 peptide (HIV-1 Gag, […]) presented by HLA-A*02:01 3A (SLANTVATL; codon GCG) | 1.01
SL9 peptide (HIV-1 Gag, […]) presented by HLA-A*02:01 3S (SLSNTVATL; codon TCG) | 1.06
SL9 peptide (HIV-1 Gag, […]) presented by HLA-A*02:01 3G (SLGNTVATL; codon GGT) | 0.969
SL9 peptide (HIV-1 Gag, […]) presented by HLA-A*02:01 3K (SLKNTVATL; codon AAG) | 1.21
SL9 peptide (HIV-1 Gag, […]) presented by HLA-A*02:01 3R (SLRNTVATL; codon AGG) | 1.06
SL9 peptide (HIV-1 Gag, […]) presented by HLA-A*02:01 3S (SLSNTVATL; codon TCT) | 1.08
SL9 peptide (HIV-1 Gag, […]) presented by HLA-A*02:01 3H (SLHNTVATL; codon CAT) | 1.25
SL9 peptide (HIV-1 Gag, […]) presented by HLA-A*02:01 3R (SLRNTVATL; codon CGG) | 1.09
SL9 peptide (HIV-1 Gag, […]) presented by HLA-A*02:01 3P (SLPNTVATL; codon CCT) | 0.983
SL9 peptide (HIV-1 Gag, […]) presented by HLA-A*02:01 3I (SLINTVATL; codon ATT) | 1.28
SL9 peptide (HIV-1 Gag, […]) presented by HLA-A*02:01 3F (SLFNTVATL; codon TTT) | 2.02
